Experimental data published in US20200255542A1 (Merck Sharp & Dohme, published 2020).

T1: Human Factor VIIa Protease (human, UniProt P08709 61-466)
T1 construct: also called FVIIa; HCVIIA-0031
T1 sequence (looked up): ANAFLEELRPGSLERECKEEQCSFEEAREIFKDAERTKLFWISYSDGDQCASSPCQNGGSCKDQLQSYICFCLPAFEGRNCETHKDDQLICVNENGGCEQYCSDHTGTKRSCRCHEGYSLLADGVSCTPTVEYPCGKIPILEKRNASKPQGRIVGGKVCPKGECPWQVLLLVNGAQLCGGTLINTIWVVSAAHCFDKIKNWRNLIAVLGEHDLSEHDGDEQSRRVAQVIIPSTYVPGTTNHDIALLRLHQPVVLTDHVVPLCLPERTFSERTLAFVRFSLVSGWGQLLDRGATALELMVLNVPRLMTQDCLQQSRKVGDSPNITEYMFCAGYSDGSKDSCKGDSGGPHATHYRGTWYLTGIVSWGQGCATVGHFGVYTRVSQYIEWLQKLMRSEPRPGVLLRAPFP

T2: Human Factor XIIa Protease (human, UniProt P00748 20-615, limits assumed)
T2 construct: also called FXIIa; Human Factor Xlla Protease
T2 sequence (looked up): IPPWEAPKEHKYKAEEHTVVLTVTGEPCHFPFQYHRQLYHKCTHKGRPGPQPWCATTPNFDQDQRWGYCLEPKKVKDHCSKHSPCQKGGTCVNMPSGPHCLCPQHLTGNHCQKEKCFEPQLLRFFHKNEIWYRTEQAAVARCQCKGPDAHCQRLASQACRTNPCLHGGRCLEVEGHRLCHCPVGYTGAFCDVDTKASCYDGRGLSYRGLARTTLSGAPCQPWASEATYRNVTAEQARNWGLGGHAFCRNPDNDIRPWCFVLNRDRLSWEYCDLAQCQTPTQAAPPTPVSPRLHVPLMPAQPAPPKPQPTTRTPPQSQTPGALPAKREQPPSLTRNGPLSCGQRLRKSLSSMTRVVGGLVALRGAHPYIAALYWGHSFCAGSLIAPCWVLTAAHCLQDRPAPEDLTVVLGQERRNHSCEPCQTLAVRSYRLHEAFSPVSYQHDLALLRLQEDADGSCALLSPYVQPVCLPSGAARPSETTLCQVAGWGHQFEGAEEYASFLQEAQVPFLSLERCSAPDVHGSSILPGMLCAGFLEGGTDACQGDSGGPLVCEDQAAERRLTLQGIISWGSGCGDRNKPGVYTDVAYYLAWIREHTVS

T3: Human Factor VII (human, UniProt P08709 61-466)
T3 construct: also called FVII; HCVII-0030
T3 sequence (looked up): T1 sequence (looked up)

T4: Human Factor XII (human, UniProt P00748 20-615)
T4 construct: also called FXII; HFXII 1212
T4 sequence (looked up): T2 sequence (looked up)

B1: αFXI-18623p IgG4 HC (S228P)(Q1)/LC Kappa (antibody, V domains shown)
VH: QVQLQESGPGLVKPSQTLSLTCTVSGGSIYSGAYYWSWIRQHPGKGLEWIGSIHYSGLTYYNPSLKSRVTISVDTSKNQFSLKLSSVTAADTAVYYCARDVDDSSGDEHYGMDVWGQGTTVTVSS
VL: DIQMTQSPSSVSASVGDRVTITCRASQGIDSWLAWYQQKPGKAPKLLIYAASSLQSGVPSRFSGSGSGTDFTLTISSLQPEDFATYYCQQYHIVPITFGGGTKVEIKR
notes: Fully human IgG4 (S228P)/kappa; also called αFXI-18623p-IgG4 (S228P) (Q1)/LC Kappa
B2: αFXI-18611 IgG4 HC (S228P)(E1)(L105)/LC Kappa (antibody, V domains shown)
VH: EVQLQESGPGLVKPSETLSLTCAVSGYSISSGYFWGWIRQPPGKGLEWIGSILHSGVTYYNPSLKSRVTISVDTSKNQFSLKLSSVTAADTAVYYCARDRTTVSLIEYFQHWGQGTLVTVSS
VL: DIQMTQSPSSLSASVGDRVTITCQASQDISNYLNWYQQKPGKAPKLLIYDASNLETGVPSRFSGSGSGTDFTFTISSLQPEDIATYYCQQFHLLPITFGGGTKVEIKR
notes: Fully human IgG4 (S228P)/kappa; also called αFXI-18611 mAb

What was measured:
[1] = target: T5, human coagulation Factor XI (FXI) zymogen (human, UniProt P03951 19-625); experiment: cell-based or functional assay
[2] = target: T1, Human Factor VIIa Protease; experiment: SPR (Biacore T200), mAb captured on anti-human IgG (Fc) chip, single analyte concentration;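 further: Anti-FXI mAbs captured about 500 RU, anti-RSV mAb as reference, coagulation cascade proteins injected at 500 nM (FXI 5 nM), 25 °C, HBS-EP+ pH 7.4, 1:1 fit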
Method: (§1) Anti-FXI mAbs were captured on a CM5 sensor chip immobilized with anti-human IgG (Fc) capture kit (GE Healthcare) at approximately 500 RU to minimize potential background from co-purifying Igs in plasma derived proteins. Negative control antibody, anti-respiratory syncytial virus (RSV) monoclonal antibody (mAb), was used as a reference and to help reduce background binding of plasma-derived proteins. Binding kinetics was measured using an analyte concentration of FXI at 5 nM; all other coagulation cascade proteins were used at an analyte concentration of 500 nM. Single concentration injections (n=2) were run at 30 μL/min, 25° C., HBS-EP+, pH 7.4.
(§2) Biacore T200 evaluation software was used to fit data to a 1:1 binding model to determine the association rate constant, kₐ (M⁻¹ s⁻¹, where “M” equals molar and “s” equals seconds) and the dissociation rate constant, kd (s⁻¹). These rate constants were used to calculate the equilibrium dissociation constant, KD (M).

[3] = target: T6, Human Factor II (Prothrombin) (human, UniProt P00734 44-622); experiment: as above
T6 construct: also called FII; lot 41AHG
Method: as §1, §2

Human Factor X = target: T7, Human Factor X (human, UniProt P00742 41-488); experiment: as above
T7 construct: also called FX; HFX1010
Method: as §1, §2

Human plasma Kallikrein = target: T8, Human plasma Kallikrein (human, UniProt P03952 20-638); experiment: as above
T8 construct: also called HPKa 1303
T8 sequence (P03952 20-638 limits assumed): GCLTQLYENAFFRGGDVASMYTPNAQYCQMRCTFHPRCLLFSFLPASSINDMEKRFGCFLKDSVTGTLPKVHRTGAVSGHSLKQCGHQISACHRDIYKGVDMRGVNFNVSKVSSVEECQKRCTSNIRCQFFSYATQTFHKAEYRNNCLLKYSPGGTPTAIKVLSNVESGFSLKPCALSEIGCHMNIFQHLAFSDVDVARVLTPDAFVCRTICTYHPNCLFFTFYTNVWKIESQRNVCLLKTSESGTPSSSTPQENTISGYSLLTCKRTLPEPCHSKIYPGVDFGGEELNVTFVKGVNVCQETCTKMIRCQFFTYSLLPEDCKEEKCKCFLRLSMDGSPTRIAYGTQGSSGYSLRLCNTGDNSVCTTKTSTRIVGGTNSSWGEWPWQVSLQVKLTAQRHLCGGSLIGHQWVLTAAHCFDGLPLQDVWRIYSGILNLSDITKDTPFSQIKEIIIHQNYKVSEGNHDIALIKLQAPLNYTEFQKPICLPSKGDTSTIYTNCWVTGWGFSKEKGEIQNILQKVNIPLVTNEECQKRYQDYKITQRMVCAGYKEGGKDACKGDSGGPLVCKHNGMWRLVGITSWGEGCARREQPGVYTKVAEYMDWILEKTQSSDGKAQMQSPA
Method: as §1, §2

[4] = target: T9, Human Factor IXa Protease (human, UniProt P00740 47-191; P00740 227-461); experiment: as above
T9 construct: also called FIXa; HFIXa 1080
Method: as §1, §2

[5] = target: Human Factor II (α-thrombin) (human, UniProt P00734 328-622); experiment: as above
Method: as §1, §2

[6] = target: T2, Human Factor XIIa Protease; experiment: as above
Method: as §1, §2

Human Factor VII = target: T3, Human Factor VII; experiment: as above
Method: as §1, §2

Human Factor Xa Protease = target: T10, Human Factor Xa Protease (human, UniProt P00742 41-179; P00742 235-488, limits assumed); experiment: as above
T10 construct: also called FXa; HFXa 1011
Method: as §1, §2

Human Factor XII = target: T4, Human Factor XII; experiment: as above
Method: as §1, §2

[7] = target: T11, Rhesus monkey plasma Kallikrein (rhesus monkey, UniProt A0A1D5Q7U7 20-638); experiment: as above
T11 construct: Recombinant, Merck Sharp & Dohme; also called NHP plasma kallikrein; lot 00AJF; not shown: C-terminal His tag
T11 sequence (A0A1D5Q7U7 entry or part of it): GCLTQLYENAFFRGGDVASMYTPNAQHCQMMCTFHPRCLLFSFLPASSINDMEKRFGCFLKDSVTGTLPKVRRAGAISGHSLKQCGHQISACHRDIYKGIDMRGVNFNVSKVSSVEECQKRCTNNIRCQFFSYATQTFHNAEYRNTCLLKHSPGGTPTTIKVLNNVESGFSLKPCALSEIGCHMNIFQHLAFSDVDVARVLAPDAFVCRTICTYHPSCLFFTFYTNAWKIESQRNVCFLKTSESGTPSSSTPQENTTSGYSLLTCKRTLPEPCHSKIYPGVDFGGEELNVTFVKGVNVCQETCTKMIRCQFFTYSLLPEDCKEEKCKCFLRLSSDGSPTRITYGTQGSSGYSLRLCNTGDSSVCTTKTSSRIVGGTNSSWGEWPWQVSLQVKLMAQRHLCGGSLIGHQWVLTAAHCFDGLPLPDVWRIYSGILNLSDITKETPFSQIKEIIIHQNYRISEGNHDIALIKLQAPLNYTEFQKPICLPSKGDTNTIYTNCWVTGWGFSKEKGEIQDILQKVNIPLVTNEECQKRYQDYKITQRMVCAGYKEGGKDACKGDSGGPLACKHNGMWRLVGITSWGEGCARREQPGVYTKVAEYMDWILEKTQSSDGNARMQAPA

[8] = target: T12, Human plasma preKallikrein (human, UniProt P03952 20-638); experiment: as above
T12 construct: also called HPK 1302
T12 sequence (P03952 20-638 limits assumed): as the sequence (P03952 20-638 limits assumed) above
Method: as §1, §2

Human Factor IX = target: T13, Human Factor IX (human, UniProt P00740 47-461); experiment: as above
T13 construct: also called FIX; FIX zymogen
Method: as §1, §2

cynomolgus monkey FXIa = target: T14, cynomolgus monkey FXIa (cynomolgus monkey, UniProt A0A2K5VVW4 19-624); experiment: SPR (ProteOn XPR36), antibody captured by anti-human IgG Fc, FXIa as analyte; mean ± SD, N=3
T14 construct: also called NHP FXIa
T14 sequence (A0A2K5VVW4 entry or part of it): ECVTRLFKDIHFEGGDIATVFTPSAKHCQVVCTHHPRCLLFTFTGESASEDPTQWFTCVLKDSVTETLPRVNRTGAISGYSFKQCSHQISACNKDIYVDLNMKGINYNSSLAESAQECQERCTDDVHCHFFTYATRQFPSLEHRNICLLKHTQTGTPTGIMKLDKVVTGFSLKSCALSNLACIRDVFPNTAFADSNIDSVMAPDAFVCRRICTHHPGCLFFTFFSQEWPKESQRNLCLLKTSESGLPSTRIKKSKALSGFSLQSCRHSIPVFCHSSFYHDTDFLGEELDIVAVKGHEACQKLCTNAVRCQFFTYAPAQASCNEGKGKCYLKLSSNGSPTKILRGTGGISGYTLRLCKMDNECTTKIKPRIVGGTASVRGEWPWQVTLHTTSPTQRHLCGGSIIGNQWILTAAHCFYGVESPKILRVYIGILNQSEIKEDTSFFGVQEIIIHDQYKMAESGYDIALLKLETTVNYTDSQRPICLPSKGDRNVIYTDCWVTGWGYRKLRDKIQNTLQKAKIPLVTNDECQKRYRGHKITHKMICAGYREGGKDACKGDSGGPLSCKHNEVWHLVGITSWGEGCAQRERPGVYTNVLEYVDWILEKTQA
Method: (§3) After capture of anti-FXI antibodies, running buffer (1×HBS-N, 5 mM CaCl₂, 0.005% P20, pH 7.4) was injected across all horizontal flow channels (A1-A6) for 5 minutes and allowed to dissociate for 20 minutes at 25 μL/min to remove any non-specifically bound anti-FXI antibodies from the chip surface.
(§4) After capture of anti-FXI antibodies, running buffer was injected across all horizontal flow channels (A1-A6) for 5 minutes and allowed to dissociate for 20 minutes at 25 L/minutes to remove non-specifically bound anti-FXI antibodies from the chip surface.

human FXIa [9] = target: T15, human FXIa (human, UniProt P03951 19-625); experiment: as above
T15 construct: also called Factor XIa
Method: as §3, §4

rhesus monkey FXIa = target: T16, rhesus monkey FXIa (rhesus monkey, UniProt F6PJ95 19-624); experiment: as above
T16 construct: also called NHP FXIa
T16 sequence (F6PJ95 entry or part of it): as the sequence (A0A2K5VVW4 entry or part of it) above, with N101D, E113K, V126I, A191V counted along it
Method: as §3, §4

human FXIa [10] = target: T15, human FXIa; experiment: cell-based or functional assay
[11] = target: T17, cynomolgus monkey FXI zymogen (cynomolgus monkey, UniProt A0A2K5VVW4 19-624); experiment: SPR (ProteOn XPR36), antibody captured by anti-human IgG Fc, FXI as analyte; mean ± SD, N=3
T17 construct: also called cyno FXI; NHP FXI
T17 sequence (A0A2K5VVW4 entry or part of it): as the sequence (A0A2K5VVW4 entry or part of it) above
Method: as §3, §4

[12] = target: T5, human coagulation Factor XI (FXI) …; experiment: as above
Method: as §3, §4

[13] = target: T18, rhesus monkey FXI zymogen (rhesus monkey, UniProt F6PJ95 19-624); experiment: as above
T18 construct: also called Rhesus FXI; NHP FXI
T18 sequence (F6PJ95 entry or part of it): as the sequence (A0A2K5VVW4 entry or part of it) above, with N101D, E113K, V126I, A191V counted along it
Method: as §3, §4

[14] = target: T5, human coagulation Factor XI (FXI) …; experiment: cell-based or functional assay; remark: listed apart in the source
[15] = target: T19, Cynomolgus monkey plasma Kallikrein (cynomolgus monkey, UniProt A0A2K5VTJ9 20-638); experiment: SPR (Biacore T200), mAb captured on anti-human IgG (Fc) chip, single analyte concentration;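 further: Anti-FXI mAbs captured about 500 RU, anti-RSV mAb as reference, coagulation cascade proteins injected at 500 nM (FXI 5 nM), 25 °C, HBS-EP+ pH 7.4, 1:1 fit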
T19 construct: Recombinant, Merck Sharp & Dohme; also called NHP plasma kallikrein; lot 65AJE; not shown: C-terminal His tag
T19 sequence (A0A2K5VTJ9 entry or part of it): as the sequence (A0A1D5Q7U7 entry or part of it) above, with N24T counted along it

Binder	FXIIa Activation + HK Inhibition (IC50, nM) [1] [nM]	FXIIa Activation no HK Inhibition (IC50, nM) [1] [nM]	binding result [2]	binding result [3]	binding result (Human Factor X)	binding result (Human plasma Kallikrein)	binding result [4]	binding result [5]	binding result [6]	binding result (Human Factor VII)	binding result (Human Factor Xa Protease)	binding result (Human Factor XII)	binding result [7]	binding result [8]	binding result (Human Factor IX)	Kd (cynomolgus monkey FXIa) [nM]	Kd (human FXIa [9]) [nM]	Kd (rhesus monkey FXIa) [nM]	FXIa IC50 nM (native, full-length substrate; activation of FIX to FIXa) (human FXIa [10]) [nM]	FXIa IC50 nM (tri-peptide substrate) (human FXIa [10]) [nM]	further results
B1	6	14	no binding (tested: 500 nM)	no binding (tested: 500 nM)	no binding (tested: 500 nM)	no binding (tested: 500 nM)	no binding (tested: 500 nM)	no binding (tested: 500 nM)	no binding (tested: 500 nM)	no binding (tested: 500 nM)	no binding (tested: 500 nM)	no binding (tested: 500 nM)	no binding (tested: 500 nM)	no binding (tested: 500 nM)	no binding (tested: 500 nM)	0.0195	0.0374	0.149	0.4	> 1000	Kd [11]: 0.013 nM; Kd [12]: 0.0226 nM; Kd [13]: 0.0722 nM; FXI Autoactivation IC50 nM (on dextran sulfate) [14]: 5.5 nM
B2	7.6	34	no binding (tested: 500 nM)	no binding (tested: 500 nM)	no binding (tested: 500 nM)	no binding (tested: 500 nM)	no binding (tested: 500 nM)	no binding (tested: 500 nM)	no binding (tested: 500 nM)	no binding (tested: 500 nM)	no binding (tested: 500 nM)	no binding (tested: 500 nM)	no binding (tested: 500 nM)	no binding (tested: 500 nM)	no binding (tested: 500 nM)	0.0892	0.0554	0.175	1	> 1000	binding result [15]: no binding (tested: 500 nM); Kd [11]: 0.18 nM; Kd [12]: 0.1 nM; Kd [13]: 0.0529 nM; FXI Autoactivation IC50 nM (on dextran sulfate) [14]: 3.3 nM
